What was measured:
[1] = target: amphiphysin I (native, from rat brain lysate) (rat) (UniProt O08838); test: peptide competition in GST-DynI-PRD pull-down from rat brain lysate; the filing later calls this an experimental artefact
[2] = target: dynamin I (native, from rat brain synaptosomes; total pool) (rat) (UniProt P21575); test: sequential GST pull-downs from synaptosome lysate; molar ratio GST-AmphI-SH3:dynamin above 2:1
[3] = target: dynamin I (native, from rat brain synaptosomes; total pool) (rat) (UniProt P21575); test: GST pull-down from synaptosome lysate without salt
[4] = target: phospho-dynamin I (native, phosphorylated in vivo, from rat brain synaptosomes) (rat) (UniProt P21575); test: GST pull-down from 32Pi-labelled synaptosome lysate, 150 mM NaCl, quantitative analysis of autoradiograph against protein
Chain of phospho-dynamin I (native, phosphorylated in vivo, from rat brain synaptosomes) (rat) (P21575 whole entry): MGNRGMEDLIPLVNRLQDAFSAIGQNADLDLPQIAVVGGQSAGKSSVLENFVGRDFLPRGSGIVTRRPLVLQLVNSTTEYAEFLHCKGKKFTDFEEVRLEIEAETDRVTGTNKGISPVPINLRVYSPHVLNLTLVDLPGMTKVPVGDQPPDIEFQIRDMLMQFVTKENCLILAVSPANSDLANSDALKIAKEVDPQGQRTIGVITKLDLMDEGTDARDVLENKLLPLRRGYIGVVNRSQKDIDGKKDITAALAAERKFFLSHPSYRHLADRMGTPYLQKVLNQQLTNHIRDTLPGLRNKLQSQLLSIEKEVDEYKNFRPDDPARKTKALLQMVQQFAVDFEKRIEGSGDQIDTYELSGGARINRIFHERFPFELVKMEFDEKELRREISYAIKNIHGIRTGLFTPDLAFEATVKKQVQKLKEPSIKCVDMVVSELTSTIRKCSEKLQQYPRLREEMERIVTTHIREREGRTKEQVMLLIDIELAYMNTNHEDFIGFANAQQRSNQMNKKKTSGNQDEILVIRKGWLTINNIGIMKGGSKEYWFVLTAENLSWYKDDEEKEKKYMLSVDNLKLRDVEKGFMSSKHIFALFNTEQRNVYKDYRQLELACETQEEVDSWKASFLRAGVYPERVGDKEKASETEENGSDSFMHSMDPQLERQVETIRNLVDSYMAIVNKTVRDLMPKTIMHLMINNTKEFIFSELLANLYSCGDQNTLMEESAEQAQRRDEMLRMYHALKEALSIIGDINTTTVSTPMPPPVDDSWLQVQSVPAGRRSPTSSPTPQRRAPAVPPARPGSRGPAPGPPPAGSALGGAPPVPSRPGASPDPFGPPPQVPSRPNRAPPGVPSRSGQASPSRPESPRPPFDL

Chain of dynamin I (native, from rat brain synaptosomes; total pool) (rat) (P21575 whole entry): as above
Chain of GST-EndoI-SH3 (O35179 290-349): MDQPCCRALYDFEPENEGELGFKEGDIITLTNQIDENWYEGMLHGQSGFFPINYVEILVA
Chain of amphiphysin I (native, from rat brain lysate) (rat) (O08838 whole entry): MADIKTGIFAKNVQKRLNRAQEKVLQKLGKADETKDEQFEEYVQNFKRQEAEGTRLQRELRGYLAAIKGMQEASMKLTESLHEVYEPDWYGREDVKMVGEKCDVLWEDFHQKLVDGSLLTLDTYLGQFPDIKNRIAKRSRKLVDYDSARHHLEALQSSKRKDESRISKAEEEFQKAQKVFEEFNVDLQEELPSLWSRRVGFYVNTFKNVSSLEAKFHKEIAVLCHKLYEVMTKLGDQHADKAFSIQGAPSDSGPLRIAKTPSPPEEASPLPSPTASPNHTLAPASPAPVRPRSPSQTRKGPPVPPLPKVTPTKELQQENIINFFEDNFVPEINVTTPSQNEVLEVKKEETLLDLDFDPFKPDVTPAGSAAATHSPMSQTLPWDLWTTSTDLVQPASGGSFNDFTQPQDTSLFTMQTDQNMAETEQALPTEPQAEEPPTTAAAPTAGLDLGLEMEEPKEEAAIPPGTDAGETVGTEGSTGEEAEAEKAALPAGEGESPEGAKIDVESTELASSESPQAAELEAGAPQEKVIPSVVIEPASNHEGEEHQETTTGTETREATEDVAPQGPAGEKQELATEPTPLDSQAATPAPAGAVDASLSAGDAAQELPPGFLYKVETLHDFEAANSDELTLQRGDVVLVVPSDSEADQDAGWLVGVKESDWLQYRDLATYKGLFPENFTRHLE

DynI783-796 peptide gave a fold higher peptide concentration needed for inhibition [1] of 10 fold.

GST-AmphI-SH3 was tested, and the residual dynamin recovered in a second sequential pull-down [2] was < 1%.

For GST-EndoI-SH3, the percent of synaptosomal dynamin I extracted [3] was > 95%.

“full-length GST-fusion protein of endophilin I (EndoI-FL)” gave a binding to phospho-dynamin I relative to the total dynamin I bound to the beads (% of AmphI-SH3 control) [4] of 91.

Work on “full-length GST-fusion protein of syndapin I (SdpnI-FL)” yielded a binding to phospho-dynamin I relative to the total dynamin I bound to the beads (% of AmphI-SH3 control) [4] of 56.
